To fix the notation:
B1: GINS heterotetramer (Psf1, Psf2, Psf3, Sld5) of S. cerevisiae CMG (complex, Saccharomyces cerevisiae)
chain 1: MYGDLGNKLVLEAKRTKQLYARSNQDVNLPMYHEDIIRNILKEVSNLRKNTEYLKEQQQLGMLDDKVAKCQYFVTLLCMERNKRCLLAYQRLRTDILDSMAWNNNGLDLMSSITFSQQDTNNLSHQEQEYLKEYCDLITDLKSGDLVDIDLSGSLVPPSDVFIDVRVLKDAGEIQTEYGVFNLIKDSQFFVRQSDVERLIQQGYLQKI
chain 2: MSLPAHLQQTFSPEEIQFIVENEPIKIFPRITTRQKIRGDDRGTGNHTRWQLITTDDKALNNMVAMRSTEVVLWIALLLKQQSKCSIVAPQWLTTKELDRKIQYEKTHPDRFSELPWNWLVLARILFNKAKDDFHDPIHELRGKIQDLREIRQIKVLKGLKYLNESHLQLDNLSLLEINELRPFITEIMDKLREIHTASLTAGTENDEEEFNI
chain 3: MGYYDIDDVLADGTEFPCKFQYDIPGLGYLENNPGRPITKNTKLSLPLWLARILAIVGGDEALVDEEPVPFVELLPPDMFSTKVMNAIKTDPVALDLHSINSHFFSLAIKWIMLFSEKELANVVSELLLQRAQELNHHASSLSIDLNADSTGKNSANTNIATSTFLLKLEEMEKEIYKKSHESYKDTKRWMFKK
chain 4: MDINIDDILAELDKETTAVDSTKITQGSSSTTHRDANTIVGSSLDLNDKTQIYVSPQQDFSDLMKSWKNERCSPELLPYPHQLMKRLLNRISMQSQLIENISMGFLDMQNASNANPPMPNESKLPLLCMETELERLKFVIRSYIRCRLSKIDKFSLYLRQLNEDENSLISLTDLLSKDEIKYHDTHSLIWLKLVNDSILKYMPEELQAINDTEGSVNMIDEPDWNKFVFIHVNGPPDGKWNEDPLLQENEFGKPCYTVTIPDLKEEVELTIGSIYVMRYEVIRDLLRDDKVALI
B2: Psf1 (S. cerevisiae), subunit of GINS in CMG (natural protein, Saccharomyces cerevisiae, UniProt Q12488 1-208, looked up)
chain: B1 chain 1
B3: Dpb4 (S. cerevisiae), subunit of Pol ε (natural protein, Saccharomyces cerevisiae, UniProt Q04603 1-196, looked up)
chain: MPPKGWRKDAQGNYPTTSYIKEQENITIQDLLFPKSTIVNLAREVPQQSGKKLLINKDASLALQRGATVFVNHLLLFAREIAKSQDKKSCSVDDVLSALDHIGHSALKGPVRDKLDEYQAAVEQRKKEKLDSGEVDADGDIDMGEDKENVPVEKVKEHDEIEEQGDALQDVEESSEKKQKTESQDVETRVQNLEQT
B4: Dpb3 (S. cerevisiae), subunit of Pol ε (natural protein, Saccharomyces cerevisiae, UniProt P27344 1-201, looked up)
chain: MSNLVKEKAPVFPISKVKKIAKCDPEYVITSNVAISATAFAAELFVQNLVEESLVLAQLNSKGKTSLRLSLNSIEECVEKRDNFRFLEDAIKQLKKNSALDKKRELNMQPGRSDQEVVIEEPELHEDDGVEEEEEEDEVSEEEEPVHNEELLDDSKDQQNDKSTRSVASLLSRFQYKSALDVGEHSDSSDIEVDHTKSTDP
B5: Dpb2 (S. cerevisiae), subunit of Pol ε (natural protein, Saccharomyces cerevisiae, UniProt P24482 1-689, looked up)
chain: MFGSGNVLPVKIQPPLLRPLAYRVLSRKYGLSIKSDGLSALAEFVGTNIGANWRQGPATIKFLEQFAAVWKQQERGLFIDQSGVKEVIQEMKEREKVEWSHEHPIQHEENILGRTDDDENNSDDEMPIAADSSLQNVSLSSPMRQPTERDEYKQPFKPESSKALDWRDYFKVINASQQQRFSYNPHKMQFIFVPNKKQNGLGGIAGFLPDIEDKVQMFLTRYYLTNDRVMRNENFQNSDMFNPLSSMVSLQNELSNTNRQQQSSSMSITPIKNLLGRDAQNFLLLGLLNKNFKGNWSLEDPSGSVEIDISQTIPTQGHYYVPGCMVLVEGIYYSVGNKFHVTSMTLPPGERREITLETIGNLDLLGIHGISNNNFIARLDKDLKIRLHLLEKELTDHKFVILGANLFLDDLKIMTALSKILQKLNDDPPTLLIWQGSFTSVPVFASMSSRNISSSTQFKNNFDALATLLSRFDNLTENTTMIFIPGPNDLWGSMVSLGASGTLPQDPIPSAFTKKINKVCKNVVWSSNPTRIAYLSQEIVIFRDDLSGRFKRHRLEFPFNESEDVYTENDNMMSKDTDIVPIDELVKEPDQLPQKVQETRKLVKTILDQGHLSPFLDSLRPISWDLDHTLTLCPIPSTMVLCDTTSAQFDLTYNGCKVINPGSFIHNRRARYMEYVPSSKKTIQEEIYI
B6: 80/75mer unprimed fork (mixed)
DNA 1: CCCCCACCGATGTGGTAGGAAGTGAGAATTGGAGAGTGTGTTTTTTTTTTTTTTTTTTTTTTTTTTTTTTTTTTTTTTTT
DNA 2: TTTTTTTTTTTTTTTTTTTTTTTTTTTTTTTTTTTTTTTTCACACTCTCCAATTCTCACTTCCTACCACATCGGT

For series [1], the target named is Mcm3 (S. cerevisiae), subunit of CMG (Saccharomyces cerevisiae, UniProt P24279 1-971). As to the kind of experiment: cross-linking.
Sequence of Mcm3 (S. cerevisiae), subunit of CMG (P24279 whole entry): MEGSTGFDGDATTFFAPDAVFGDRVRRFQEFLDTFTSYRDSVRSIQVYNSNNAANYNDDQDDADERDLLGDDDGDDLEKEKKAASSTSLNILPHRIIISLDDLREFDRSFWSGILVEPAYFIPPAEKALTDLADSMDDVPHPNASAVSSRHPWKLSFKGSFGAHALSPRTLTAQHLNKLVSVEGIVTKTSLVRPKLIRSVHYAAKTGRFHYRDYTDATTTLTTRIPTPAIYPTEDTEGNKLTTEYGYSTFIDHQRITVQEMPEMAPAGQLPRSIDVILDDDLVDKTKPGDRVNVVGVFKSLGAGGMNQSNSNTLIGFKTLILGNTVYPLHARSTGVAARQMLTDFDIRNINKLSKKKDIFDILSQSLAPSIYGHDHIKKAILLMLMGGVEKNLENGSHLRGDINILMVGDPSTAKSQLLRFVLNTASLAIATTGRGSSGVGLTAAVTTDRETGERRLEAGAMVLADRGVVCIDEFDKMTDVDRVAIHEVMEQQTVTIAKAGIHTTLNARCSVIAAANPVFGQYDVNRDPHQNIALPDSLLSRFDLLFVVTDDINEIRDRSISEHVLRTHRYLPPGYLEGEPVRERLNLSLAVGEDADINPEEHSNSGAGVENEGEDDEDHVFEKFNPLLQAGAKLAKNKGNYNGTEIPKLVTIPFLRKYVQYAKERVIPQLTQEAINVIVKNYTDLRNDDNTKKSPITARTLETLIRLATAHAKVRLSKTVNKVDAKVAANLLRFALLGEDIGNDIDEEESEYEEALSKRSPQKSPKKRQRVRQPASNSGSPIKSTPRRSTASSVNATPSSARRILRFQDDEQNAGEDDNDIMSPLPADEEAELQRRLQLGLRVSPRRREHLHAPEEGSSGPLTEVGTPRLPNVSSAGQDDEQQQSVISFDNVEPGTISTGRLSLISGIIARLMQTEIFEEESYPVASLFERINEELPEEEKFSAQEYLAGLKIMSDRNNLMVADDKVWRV
In series [2] the target is T1, Cdc45 (S. cerevisiae), subunit of CMG (Saccharomyces cerevisiae, UniProt Q08032 1-650).
T1 sequence (looked up): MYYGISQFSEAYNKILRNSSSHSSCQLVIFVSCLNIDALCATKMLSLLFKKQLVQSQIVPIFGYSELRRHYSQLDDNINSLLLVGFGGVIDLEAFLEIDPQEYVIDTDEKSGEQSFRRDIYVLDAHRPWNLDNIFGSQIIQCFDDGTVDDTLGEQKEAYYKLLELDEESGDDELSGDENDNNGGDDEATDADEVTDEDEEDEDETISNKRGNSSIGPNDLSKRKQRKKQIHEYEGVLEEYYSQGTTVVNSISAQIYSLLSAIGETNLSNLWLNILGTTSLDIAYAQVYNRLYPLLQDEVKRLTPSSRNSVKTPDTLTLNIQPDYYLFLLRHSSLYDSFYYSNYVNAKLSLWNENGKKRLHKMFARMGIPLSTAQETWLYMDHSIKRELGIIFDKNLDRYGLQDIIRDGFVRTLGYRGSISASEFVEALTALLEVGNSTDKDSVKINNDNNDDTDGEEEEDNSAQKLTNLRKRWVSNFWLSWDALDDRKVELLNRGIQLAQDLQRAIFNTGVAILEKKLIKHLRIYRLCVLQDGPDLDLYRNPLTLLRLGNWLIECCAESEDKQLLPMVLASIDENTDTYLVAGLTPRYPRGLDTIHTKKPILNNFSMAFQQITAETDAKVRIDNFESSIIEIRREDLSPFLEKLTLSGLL
Description: cross-linking.

Series [3] addresses B5. Description: cross-linking.
In series [4] the target is T2, Mcm5 (S. cerevisiae), subunit of CMG (Saccharomyces cerevisiae, UniProt P29496 1-775).
T2 sequence (looked up): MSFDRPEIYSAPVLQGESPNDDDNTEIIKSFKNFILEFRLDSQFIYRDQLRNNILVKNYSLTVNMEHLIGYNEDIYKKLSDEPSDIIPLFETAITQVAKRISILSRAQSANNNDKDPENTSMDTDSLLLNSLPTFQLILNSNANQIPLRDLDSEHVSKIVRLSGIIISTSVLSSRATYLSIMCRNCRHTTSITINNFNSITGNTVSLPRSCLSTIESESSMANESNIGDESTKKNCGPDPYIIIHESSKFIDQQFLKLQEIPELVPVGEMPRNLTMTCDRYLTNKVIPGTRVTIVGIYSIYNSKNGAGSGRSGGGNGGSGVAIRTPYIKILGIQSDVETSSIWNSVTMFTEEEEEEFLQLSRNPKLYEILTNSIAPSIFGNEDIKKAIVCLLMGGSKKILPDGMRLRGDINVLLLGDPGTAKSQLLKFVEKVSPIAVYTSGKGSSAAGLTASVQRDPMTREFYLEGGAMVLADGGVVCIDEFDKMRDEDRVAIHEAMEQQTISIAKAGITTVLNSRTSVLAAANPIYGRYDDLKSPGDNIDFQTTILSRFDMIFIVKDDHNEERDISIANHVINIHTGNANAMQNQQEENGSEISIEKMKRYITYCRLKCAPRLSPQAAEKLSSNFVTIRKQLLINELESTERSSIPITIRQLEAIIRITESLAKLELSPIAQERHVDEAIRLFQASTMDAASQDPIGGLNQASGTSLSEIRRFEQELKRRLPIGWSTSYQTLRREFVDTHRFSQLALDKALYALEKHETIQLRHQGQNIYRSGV
Description: cross-linking.

The target in series [5] is CMG helicase (Cdc45-Mcm2-7-GINS, 11 subunits) (Saccharomyces cerevisiae, UniProt P29469;P24279;P30665;P29496;P53091;P38132;Q08032;Q12488;P40359;Q12146;Q03406 …). As to the kind of experiment: EMSA. A general note: In EMSA bound probe runs differently from free probe, usually more slowly.

Take B1: in series [1], the binding result was “binds”.

As to B2, the binding result in series [2] and in series [3] was “binds” in each case.

As for B3, the binding result in series [2] is reported as “binds”.

Take B4: the binding result in series [2] was “binds”.

Take B5: in series [4], the binding result is “binds”.

With B6, the binding result in series [5] is reported as “binds”.

The record behind these values is paper PMC4849863 (Nature structural & molecular biology, 2015).
